These results are taken from IntAct's records for PubMed 24358019.

The labels stand for the following.
B1: RNA polymerase sigma factor RpoH (Escherichia coli (strain K12)), P0AGB3 (parent)
chain: MTDKMQSLALAPVGNLDSYIRAANAWPMLSADEERALAEKLHYHGDLEAAKTLILSHLRFVVHIARNYAGYGLPQADLIQEGNIGLMKAVRRFNPEVGVRLVSFAVHWIKAEIHEYVLRNWRIVKVATTKAQRKLFFNLRKTKQRLGWFNQDEVEMVARELGVTSKDVREMESRMAAQDMTFDLSSDDDSDSQPMAPVLYLQDKSSNFADGIEDDNWEEQAANRLTDAMQGLDERSQDIIRARWLDEDNKSTLQELADRYGVSAERVRQLEKNAMKKLRAAIEA
partner: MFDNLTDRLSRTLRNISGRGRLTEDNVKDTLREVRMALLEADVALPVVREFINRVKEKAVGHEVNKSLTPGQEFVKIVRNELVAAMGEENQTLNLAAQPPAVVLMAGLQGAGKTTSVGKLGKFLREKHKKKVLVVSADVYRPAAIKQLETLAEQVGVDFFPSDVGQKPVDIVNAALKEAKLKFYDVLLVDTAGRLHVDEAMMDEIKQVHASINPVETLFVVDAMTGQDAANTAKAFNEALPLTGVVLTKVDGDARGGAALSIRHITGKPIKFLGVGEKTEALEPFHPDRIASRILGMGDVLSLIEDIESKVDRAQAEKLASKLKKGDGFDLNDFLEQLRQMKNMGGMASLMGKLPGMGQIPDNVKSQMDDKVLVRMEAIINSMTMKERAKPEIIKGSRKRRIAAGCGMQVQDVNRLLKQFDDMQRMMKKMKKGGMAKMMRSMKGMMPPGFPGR

The variants in the assay derive from B1. The settings on record: with srp54_ecoli ffh.
Turning to I54N, the “effect of a mutation on the interaction” value was “decreasing interaction strength”.
